Results on 3 molecules are retold here after patent US11021687B2, “Production of differentiated enteroendocrine cells and insulin producing cells” (Massachusetts Institute of Technology, priority 2016, dated 2021).

Holding throughout (type): cell-based, mouse
Assay [1] concerns intestinal stem cells. The assay can be described thus: Ngn3 mRNA expression during EEC differentiation. To be noted: 2 days. The procedure:
“Ngn3 Assay” as used herein is an assay used to determine the extent of expression of Ngn3 in cells, such as cells subjected to a differentiation protocol. In an exemplary Ngn3 Assay, RNA is isolated from cells that have been cultured according to a differentiation protocol, and quantitative real-time PCR is performed using commercially available primers and probes (such as Taqman probes) to determine an extent of Ngn3 expression in the cells.
(§1) Organoids or differentiated cells were harvested and RNA was extracted using RNeasy Micro Kit (Qiagen) according to the manufacturer's instruction. Quantitative real-time PCR was performed with QuantiTect Probe PCR kit (Qiagen) using commercially available primers and TaqMan probes (Life Technologies).
There has been prior speculation that Ngn3 positive secretory progenitors differentiate to EECs (Genes Dev. 2002).

Assay [2] has as its system gastrointestinal stem cells. The assay can be described thus: Insulin / Nkx6.1 mRNA expression (qPCR), 3-stage conversion to insulin producing cells. To be noted: added in Stage 1, combined with RepSox. An excerpt:
“mRNA Insulin Expression Assay” refers to an assay used to determine the relative insulin mRNA expression level of a cell population. For example, the assay can determine the insulin mRNA level expressed in a cell population treated to increase the expression of insulin in the cells, as compared to an untreated population of cells. In an exemplary mRNA Insulin Expression Assay, the cells were collected and the RNA is extracted from the cells using an RNA extraction kit (such as RNeasy Mini kit, Qiagen). The insulin expression level is then assessed by Quantitative real-time PCR using a one-step qPCR kit (such as QuantiTech Probe PCR kit, Qiagen) and Ins1 or Ins2 primers and probes (such as the commercially available TaqMan probe for mouse Ins1 and Ins2, Life Technologies). The relative insulin mRNA expression can be determined relative to a baseline or other marker, such as Hprt mRNA expression level or other baseline marker.
Organoids or differentiated cells were harvested and RNA was extracted using RNeasy Micro Kit (Qiagen) according to the manufacturer's instruction. Quantitative real-time PCR was performed with QuantiTect Probe PCR kit (Qiagen) using commercially available primers and TaqMan probes (Life Technologies). […]
In general terms: In qPCR the cycle at which signal appears reflects the starting amount.

Assay [3] relates to intestinal stem cells. The assay can be described thus: mRNA expression (qPCR) of ChgA and other lineage markers in differentiated intestinal stem cells. To be noted: Noggin in step 2.
From the text: “mRNA ChgA Expression Assay” refers to an assay used to determine the relative ChgA mRNA expression level in a cell population. For example, the assay can determine ChgA mRNA expression level of a differentiated cell population following treatment with agents being tested, as compared to an untested population of post-natal stem cells. In an example of an mRNA ChgA Expression Assay, the cells were collected and the RNA is extracted from the cells using an RNA extraction kit (such as RNeasy Mini kit, Qiagen). The ChgA expression level is then assessed by Quantitative real-time PCR using a one-step qPCR kit (such as QuantiTech Probe PCR kit, Qiagen) and ChgA primers and probes (such as commercially available Taqman probe for mouse ChgA, Life Technologies).
as §1
Cells were then cultured with EGF, Noggin, and DAPT (END), as well as small molecules. After 2-3 days of differentiation, the cells lysed and ChgA expression was measured by qRT-PCR.
Small molecules were further validated using a 24-well plate culture and the differentiation system. […]

B1: R-spondin1: Wnt activator, a protein belonging to the R-Spondin family (protein, UniProt Q2MKA7 21-263, looked up)
R-spondin-1: SRGIKGKRQRRISAEGSQACAKGCELCSEVNGCLKCSPKLFILLERNDIRQVGVCLPSCPPGYFDARNPDMNKCIKCKIEHCEACFSHNFCTKCKEGLYLHKGRCYPACPEGSSAANGTMECSSPAQCEMSEWSPWGPCSKKQQLCGFRRGSEERTRRVLHAPVGDHAACSDTKETRRCTVRRVPCPEGQKRRKGGQGRRENANRNLARKESKEAGAGSRRRKGQQQQQQQGTVGPLTSAGPA
Take B1: the “Ngn3 expression on removal of R-spondin1” value in the assay on intestinal stem cells [1] is “strong reduction”.

B2: FGF10: growth factor added in Stage 1 (protein, UniProt O15520 38-208, looked up)
Fibroblast growth factor 10: QALGQDMVSPEATNSSSSSFSSPSSAGRHVRSYNHLQGDVRWRKLFSFTKYFLKIEKNGKVSGTKKENCPYSILEITSVEIGVVAVKAINSNYYLAMNKKGKLYGSKEFNNDCKLKERIEENGYNTYASFNWQHNGRQMYVALNGKGAPRRGQKTRRKNTSAHFLPMVVHS
Turning to B2, the Insulin expression result in assay [2] was “further increased”.

B3: Noggin: growth factor (protein, UniProt Q13253 28-232, looked up)
Noggin: QHYLHIRPAPSDNLPLVDLIEHPDPIFDPKEKDLNETLLRSLLGGHYDPGFMATSPPEDRPGGGGGAAGGAEDLAELDQLLRQRPSGAMPSEIKGLEFSEGLAQGKKQRLSKKLRRKLQMWLWSQTFCPVLYAWNDLGSRFWPRYVKVGSCFSKRSCSVPEGMVCKPSKSVHLTVLRWRCQRRGGQRCGWIPIQYPIISECKCSC
With B3, in the assay on intestinal stem cells [3], the “effect on EEC differentiation” value is on record as “marginal”.
